Results as given in article doi:10.1101/2024.05.24.595734 (bioRxiv, 2024).

B1: tetrapeptide EVFL (peptide)
peptide: EVFL
B2: tetrapeptide STLL (peptide)
peptide: STLL
B3: tetrapeptide RGLL (peptide)
peptide: RGLL
B4: PrfA^WT (Listeria monocytogenes virulence master regulator PrfA) (natural protein)
chain: GAMNAQAEEFKKYLETNGIKPKQFHKKELIFNQWDPQEYCIFLYDGITKLTSISENGTIMNLQYYKGAFVIMSGFIDTETSVGYYNLEVISEQATAYVIKINELKELLSKNLTHFFYVFQTLQKQVSYSLAKFNDFSINGKLGSICGQLLILTYVYGKETPDGIKITLDNLTMQELGYSSGIAHSSAVSRIISKLKQEKVIVYKNSCFYVQNLDYLKRYAPKLDEWFYLACPATWGKLN

Assays:
[1] = biological target: PrfA^WT (Listeria monocytogenes virulence master regulator PrfA) (Listeria monocytogenes) (UniProt P22262); assay: ITC
crystal structure = biological target: the molecule itself; assay: crystal structure

Molecule | Kd [1] [µM] | binding result (crystal structure)
tripeptide EVF | 12 | 
B1 | 15 | 
B2 | 32 | 
B3 | 145 | 
B4 |  | binds
